We go through one molecule from publication PMC9399855 (2022).

Assay [1] addresses T1, 6.3HIP 10D>R (mutant of B13-19/ProSAAS 219-225) peptide on I-Ag7 (mouse).
T1 peptide: EALYLVCSVRQDLG
The experiment in a line: cytokine release.

Assay [2] concerns the target T2, 6.3HIP 2-14 (N-terminal truncation of the 6.3HIP) peptide on I-Ag7 (mouse).
T2 peptide: ALYLVCSVDQDLG
The experiment in a line: cytokine release.

Assay [3] concerns the target T3, 6.3HIP -1-14 (6.3HIP with a valine added at the N-terminus); RESTORED: the article prints …, which lacks the … (mouse).
T3 peptide: VEALYLVCSVDQDLG
The experiment in a line: cytokine release.

In assay [4] the target is T4, 6.3HIP 12D>R (mutant of B13-19/ProSAAS 219-225) peptide on I-Ag7 (mouse).
T4 peptide: EALYLVCSVDQRLG
Description: cytokine release.

For assay [5], the target named is T5, hybrid insulin peptide 6.3HIP: insulin B-chain B13-19 joined to ProSAAS 219-225 peptide on I-Ag7 (mouse).
T5 peptide: EALYLVCSVDQDLG
Description: cytokine release.

The target of assay [6] is T6, 6.3HIP 1-11: insulin B-chain B13-19 joined to ProSAAS 219-222 peptide on I-Ag7 (mouse).
T6 peptide: EALYLVCSVDQ
Description: multimer staining.

B1: PD12-4.4 (TCR)
alpha TRAV5D-4 TRAJ53 CDR3: CAASASGGSNYKLTF
beta TRBV5 CDR3: CASSQDTNTGQLYF
B1: the binding result in assay [1] is recorded as “no recognition”; in assay [2], “no recognition”; in assay [3] it was “recognises”; in assay [4], “recognises”; in assay [5], “recognises”; in assay [6] it was “recognises”.
